This note sets out measurements from publication PMC9102066, “Cloning and Functional Characterization of Dog OCT1 and OCT2: Another Step in Exploring Species Differences in Organic Cation Transporters” (International Journal of Molecular Sciences, 2022).

As a reminder, the Km is the concentration of substrate that gives half-maximal velocity. Usually Vmax stands for the top rate of the reaction or transport when substrate is in excess.

Conditions in all cases: other: OCT1-mediated uptake, HEK293, 2 min, Michaelis–Menten fit; pH 7.4
Substrate in data set [1]: CN(C)C(=N)N=C(N)N
As to the kind of experiment: Uptake in HEK293 cells stably overexpressing mouse OCT1. The data set is classed as in vitro ADME.
Protocol: (§1) The total uptake is shown for the overexpressing and control cells (left hand side). OCT1-mediated uptake (right hand side) was calculated by subtracting the uptake of control cells (pcDNA5) from the uptake of OCT1-overexpressing cells. The means and standard errors of the means are shown for at least three independent experiments.
(§2) At 48 h prior to the experiment, 6 × 10^5 cells were seeded per well in 12-well plates pre-coated with poly-D-lysine.
(§3) Cellular uptake experiments were performed at 37 °C and pH 7.4 using Hanks’ Buffered Salt Solution (HBSS) supplemented with 10 mM HEPES (referred to as HBSS+ in the following). Cells were washed with 1 mL pre-warmed (37 °C) HBSS+ and uptake was initiated by adding 400 µL of pre-warmed HBSS+ containing the substrate. Uptake was allowed for exactly 2 min and stopped by adding 2 mL ice-cold HBSS+. Cells were washed twice with 2 mL ice-cold HBSS+ then lysed with 80% acetonitrile supplemented with internal standard. The intracellularly accumulated substrate concentrations were measured using LC-MS/MS as described in the following and normalized to the amount of total protein in the samples as measured using the bicinchoninic acid assay [49].
(§4) Intracellular substrate concentrations were quantified using LC-MS/MS. […] The pellet was reconstituted with 200 µL 0.1% formic acid and between 5 and 10 µL was injected into the LC-MS/MS system (Table S2).
(§5) An API4000 QTRAP tandem mass spectrometer with ESI interface (AB SCIEX, Darmstadt, Germany) coupled to a Shimadzu Nexera X2 UHPLC system with LC 30AD pumps and SiL 30AC autosampler (Shimadzu, Duisburg, Germany) was used for analysis.
(§6) Intrinsic clearance CLint was calculated by dividing vmax by KM for each experiment. Kinetic parameters were compared between OCT1 orthologs using an ANOVA followed by Tukey’s honestly significant difference post hoc comparisons in SPSS Statistics version 28 (SPSS Inc., IBM, Chicago, IL, USA).

Substrate in data set [2]: O=C(O[C@H]1C[C@H]2CC[C@@H](C1)[N+]21CCCC1)C(O)(c1ccccc1)c1ccccc1
Described as above. The class given is in vitro ADME.
Protocol: as §1, §2, §3, §4, §5, §6

Substrate in data set [3]: CCCC[N+]1(C)[C@@H]2C[C@@H](OC(=O)[C@H](CO)c3ccccc3)C[C@H]1[C@@H]1O[C@@H]12
Described as above. The class given is in vitro ADME.
Protocol: as §1, §2, §3, §4, §5, §6

Substrate in data set [4]: CC(Cc1ccc(O)cc1)NCC(O)c1cc(O)cc(O)c1
The experiment in a line: cells, lysate or membranes named.

Substrate in data set [5]: O=C(O[C@H]1C[C@H]2CC[C@@H](C1)[N+]21CCCC1)C(O)(c1ccccc1)c1ccccc1
The experiment in a line: Uptake in HEK293 cells stably overexpressing human OCT1. The data set is classed as in vitro ADME.
Protocol: as §1, §2, §3, §4, §5, §6

Substrate in data set [6]: CCCC[N+]1(C)[C@@H]2C[C@@H](OC(=O)[C@H](CO)c3ccccc3)C[C@H]1[C@@H]1O[C@@H]12
Protocol: as §1, §2, §3, §4, §5, §6
The data set is described as above. The data set is classed as in vitro ADME.

B1: mouse OCT1 (Mus musculus) (protein)
chain: MPTVDDVLEHVGEFGWFQKQAFLLLCLISASLAPIYVGIVFLGFTPDHHCRSPGVAELSQRCGWSPAEELNYTVPGLGSAGEASFLSQCMKYEVDWNQSTLDCVDPLSSLAANRSHLPLSPCEHGWVYDTPGSSIVTEFNLVCGDAWKVDLFQSCVNLGFFLGSLVVGYIADRFGRKLCLLVTTLVTSLSGVLTAVAPDYTSMLLFRLLQGMVSKGSWVSGYTLITEFVGSGYRRTTAILYQVAFTVGLVGLAGVAYAIPDWRWLQLAVSLPTFLFLLYYWFVPESPRWLLSQKRTTQAVRIMEQIAQKNRKVPPADLKMMCLEEDASERRSPSFADLFRTPSLRKHTLILMYLWFSCAVLYQGLIMHVGATGANLYLDFFYSSLVEFPAAFIILVTIDRIGRIYPIAASNLVAGAACLLMIFIPHELHWLNVTLACLGRMGATIVLQMVCLVNAELYPTFIRNLGMMVCSALCDLGGIFTPFMVFRLMEVWQALPLILFGVLGLSAGAVTLLLPETKGVALPETIEEAENLGRRKSKAKENTIYLQVQTGKSPHT
notes: expressed in transfected cells; host or cells: HEK293 (Flp-In system)
For the protein B1, the Km in data set [1] is 298 ± 46.9 µM; in data set [2], 1.92 ± 0.85 µM; in data set [3], 6.60 ± 1.13 µM; in data set [4] it was 10.7 ± 1.09 µM. For the same protein, the values for the Vmax in data set [1], in data set [2] and in data set [3] were 0.0109 ± 0.00125 µmol/min/mg, 0.000255 µmol/min/mg and 0.000778 µmol/min/mg, respectively. Moreover, the Vmax/Km in data set [1] amounted to 38.7 µL/min/mg; in data set [2], 180 µL/min/mg; in data set [3], 131 µL/min/mg.

B2: human OCT1 (Homo sapiens) (protein)
chain: MPTVDDILEQVGESGWFQKQAFLILCLLSAAFAPICVGIVFLGFTPDHHCQSPGVAELSQRCGWSPAEELNYTVPGLGPAGEAFLGQCRRYEVDWNQSALSCVDPLASLATNRSHLPLGPCQDGWVYDTPGSSIVTEFNLVCADSWKLDLFQSCLNAGFLFGSLGVGYFADRFGRKLCLLGTVLVNAVSGVLMAFSPNYMSMLLFRLLQGLVSKGNWMAGYTLITEFVGSGSRRTVAIMYQMAFTVGLVALTGLAYALPHWRWLQLAVSLPTFLFLLYYWCVPESPRWLLSQKRNTEAIKIMDHIAQKNGKLPPADLKMLSLEEDVTEKLSPSFADLFRTPRLRKRTFILMYLWFTDSVLYQGLILHMGATSGNLYLDFLYSALVEIPGAFIALITIDRVGRIYPMAMSNLLAGAACLVMIFISPDLHWLNIIIMCVGRMGITIAIQMICLVNAELYPTFVRNLGVMVCSSLCDIGGIITPFIVFRLREVWQALPLILFAVLGLLAAGVTLLLPETKGVALPETMKDAENLGRKAKPKENTIYLKVQTSEPSGT
notes: as for B1
For B2, in data set [5], the Km stood at 13.3 ± 1.58 µM, the Vmax amounted to 0.0015 µmol/min/mg and the Vmax/Km amounted to 117 µL/min/mg. Besides, in data set [6], the Km was determined as 15.0 ± 1.67 µM, the Vmax was determined as 0.00125 µmol/min/mg and the Vmax/Km stood at 84.4 µL/min/mg. Moreover, the Km in data set [4] amounted to 1.19 ± 0.09 µM.
